Experimental findings from paper doi:10.1101/2024.04.26.591305 (2024) are described below.

The labels stand for the following.
B1: U20 (msfGFPΔC10-Utr28-222) (domain or fragment)
chain: EHNDVQKKTFTKWINARFSKSGKPPINDMFTDLKDGRKLLDLLEGLTGTSLPKERGSTRVHALNNVNRVLQVLHQNNVELVNIGGTDIVDGNHKLTLGLLWSIILHWQVKDVMKDVMSDLQQTNSEKILLSWVRQTTRPYSQVNVLNFTTSWTDGLAFNAVLHRHKPDLFSWDKVVKMSPIERLEHAFSKAQTYL

For the test, the target named is α-skeletal muscle actin filaments (rabbit) (rabbit, UniProt P68135 1-377).
As for VADLIKKFESISKEE (domain or fragment) [L45 (msfGFPΔC9-LifeactΔN2)], the affinity, expressed as Kd, was 4.5 µM.
As for B1, the figure is 13.2 µM; as for MGVADLIKKFESI (domain or fragment) [L22 (LifeactΔC4-msfGFPΔN7)], 11.3 µM.
